Results reported in the supplement of paper PMC5998384.

Tests used:
[1] = test system: HeLa Kyoto; test: solubility in G1/S (NP-40 vs SDS abundance) (log2 ratio); higher = more soluble; conditions: cell cycle stage: G1/S
[2] = test system: HeLa Kyoto; test: thermal stability score vs G1/S (z-score of summed log2 fold changes over temperatures); higher = more thermally stable than in G1/S
[3] = test system: HeLa Kyoto; test: melting temperature (median over replicates), in situ; higher = more thermally stable
[4] = test system: HeLa Kyoto; test: solubility change mitosis vs G1/S (difference of NP-40 vs SDS log2 ratios) (log2 ratio difference); higher = more soluble in mitosis
[5] = cell cycle stage: early G1 (4.5 h after nocodazole release)
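For melting temperature (median over replicates), in situ in this document: HeLa Kyoto cells synchronized by double thymidine or nocodazole block, proteins quantified by TMT10plex mass spectrometry, three independent biological replicates.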
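For solubility change mitosis vs G1/S (difference of NP-40 vs SDS log2 ratios) in this document: synchronized HeLa Kyoto cells (double thymidine block for G1/S, nocodazole release for mitosis), protein amounts in NP-40 versus SDS lysates quantified by mass spectrometry, three biological replicates.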
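For solubility in G1/S (NP-40 vs SDS abundance) in this document: HeLa Kyoto cells arrested at G1/S by double thymidine block, proteins quantified by TMT10plex mass spectrometry in mild NP-40 versus SDS extracts, three biological replicates.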
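For thermal stability score vs G1/S (z-score of summed log2 fold changes over temperatures) in this document: synchronized HeLa Kyoto cells, proteins quantified by TMT10plex mass spectrometry, three biological replicates, mitosis taken 0.5 h after nocodazole release, G1/S directly after double thymidine block.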

Row | Sequence | solubility in G1/S (log2) [1] | thermal stability score [2, 5] | thermal stability score ([2]; cell cycle stage: mitosis) | melting temperature ([3]; cell cycle stage: G1/S) [°C] | melting temperature ([3]; cell cycle stage: mitosis) [°C] | solubility change mitosis (log2) [4]
1 | MATERSRSAMDSPVPASMFAPEPSSPGAARAAAAAARLHGGFDSDCSEDGEALNGEPELDLTSKLVLVSPTSEQYDSLLRQMWERMDEGCGETIYVIGQGSDGTEYGLSEADMEASYATVKSMAEQIEADVILLRERQEAGGRVRDYLVRKRVGDNDFLEVRVAVVGNVDAGKSTLLGVLTHGELDNGRGFARQKLFRHKHEIESGRTSSVGNDILGFDSEGNVVNKPDSHGGSLEWTKICEKSTKVITFIDLAGHEKYLKTTVFGMTGHLPDFCMLMVGSNAGIVGMTKEHLGLALALNVPVFVVVTKIDMCPANILQETLKLLQRLLKSPGCRKIPVLVQSKDDVIVTASNFSSERMCPIFQISNVTGENLDLLKMFLNLLSPRTSYREEEPAEFQIDDTYSVPGVGTVVSGTTLRGLIKLNDTLLLGPDPLGNFLSIAVKSIHRKRMPVKEVRGGQTASFALKKIKRSSIRKGMVMVSPRLNPQASWEFEAEILVLHHPTTISPRYQAMVHCGSIRQTATILSMDKDCLRTGDKATVHFRFIKTPEYLHIDQRLVFREGRTKAVGTITKLLQTTNNSPMNSKPQQIKMQSTKKGPLTKRDEGGPSGGPAVGAPPPGDEASSVGAGQPAASSNLQPQPKPSSGGRRRGGQRHKVKSQGACVTPASGC [GTPBP1] | 0.0683 | 1.01 | 0.553 | 51.1 | 50.7 | -0.0833
2 | MATFISVQLKKTSEVDLAKPLVKFIQQTYPSGGEEQAQYCRAAEELSKLRRAAVGRPLDKHEGALETLLRYYDQICSIEPKFPFSENQICLTFTWKDAFDKGSLFGGSVKLALASLGYEKSCVLFNCAALASQIAAEQNLDNDEGLKIAAKHYQFASGAFLHIKETVLSALSREPTVDISPDTVGTLSLIMLAQAQEVFFLKATRDKMKDAIIAKLANQAADYFGDAFKQCQYKDTLPKEVFPVLAAKHCIMQANAEYHQSILAKQQKKFGEEIARLQHAAELIKTVASRYDEYVNVKDFSDKINRALAAAKKDNDFIYHDRVPDLKDLDPIGKATLVKSTPVNVPISQKFTDLFEKMVPVSVQQSLAAYNQRKADLVNRSIAQMREATTLANGVLASLNLPAAIEDVSGDTVPQSILTKSRSVIEQGGIQTVDQLIKELPELLQRNREILDESLRLLDEEEATDNDLRAKFKERWQRTPSNELYKPLRAEGTNFRTVLDKAVQADGQVKECYQSHRDTIVLLCKPEPELNAAIPSANPAKTMQGSEVVNVLKSLLSNLDEVKKEREGLENDLKSVNFDMTSKFLTALAQDGVINEEALSVTELDRVYGGLTTKVQESLKKQEGLLKNIQVSHQEFSKMKQSNNEANLREEVLKNLATAYDNFVELVANLKEGTKFYNELTEILVRFQNKCSDIVFARKTERDELLKDLQQSIAREPSAPSIPTPAYQSSPAGGHAPTPPTPAPRTMPPTKPQPPARPPPPVLPANRAPSATAPSPVGAGTAAPAPSQTPGSAPPPQAQGPPYPTYPGYPGYCQMPMPMGYNPYAYGQYNMPYPPVYHQSPGQAPYPGPQQPSYPFPQPPQQSYYPQQ [PDCD6IP] | 0.366 | -2.03 | -1.7 | 48.7 | 48.6 | -0.0427
3 | MATKARVMYDFAAEPGNNELTVNEGEIITITNPDVGGGWLEGRNIKGERGLVPTDYVEILPSDGKDQFSCGNSVADQAFLDSLSASTAQASSSAASNNHQVGSGNDPWSAWSASKSGNWESSEGWGAQPEGAGAQRNTNTPNNWDTAFGHPQAYQGPATGDDDDWDEDWDGPKSSSYFKDSESADAGGAQRGNSRASSSSMKIPLNKFPGFAKPGTEQYLLAKQLAKPKEKIPIIVGDYGPMWVYPTSTFDCVVADPRKGSKMYGLKSYIEYQLTPTNTNRSVNHRYKHFDWLYERLLVKFGSAIPIPSLPDKQVTGRFEEEFIKMRMERLQAWMTRMCRHPVISESEVFQQFLNFRDEKEWKTGKRKAERDELAGVMIFSTMEPEAPDLDLVEIEQKCEAVGKFTKAMDDGVKELLTVGQEHWKRCTGPLPKEYQKIGKALQSLATVFSSSGYQGETDLNDAITEAGKTYEEIASLVAEQPKKDLHFLMECNHEYKGFLGCFPDIIGTHKGAIEKVKESDKLVATSKITLQDKQNMVKRVSIMSYALQAEMNHFHSNRIYDYNSVIRLYLEQQVQFYETIAEKLRQALSRFPVM [SNX9] | -0.0383 | -0.198 | 0.732 | 49.9 | 49.3 | -0.0298
4 | MATRVEEAARGRGGGAEEATEAGRGGRRRSPRQKFEIGTMEEAGICGLGVKADMLCNSQSNDILQHQGSNCGGTSNKHSLEEDEGSDFITENRNLVSPAYCTQESREEIPGGEARTDPPDGQQDSECNRNKEKTLGKEVLLLMQALNTLSTPEEKLAALCKKYADLLEESRSVQKQMKILQKKQAQIVKEKVHLQSEHSKAILARSKLESLCRELQRHNKTLKEENMQQAREEEERRKEATAHFQITLNEIQAQLEQHDIHNAKLRQENIELGEKLKKLIEQYALREEHIDKVFKHKELQQQLVDAKLQQTTQLIKEADEKHQREREFLLKEATESRHKYEQMKQQEVQLKQQLSLYMDKFEEFQTTMAKSNELFTTFRQEMEKMTKKIKKLEKETIIWRTKWENNNKALLQMAEEKTVRDKEYKALQIKLERLEKLCRALQTERNELNEKVEVLKEQVSIKAAIKAANRDLATPVMQPCTALDSHKELNTSSKRALGAHLEAEPKSQRSAVQKPPSTGSAPAIESVD [TXLNG] | 0.584 | -0.882 | -2.17 | 52.5 | 52.5 | 0.0514
5 | MATSSMSKGCFVFKPNSKKRKISLPIEDYFNKGKNEPEDSKLRFETYQLIWQQMKSENERLQEELNKNLFDNLIEFLQKSHSGFQKNSRDLGGQIKLREIPTAALVLGVNVTDHDLTFGSLTEALQNNVTPYVVSLQAKDCPDMKHFLQKLISQLMDCCVDIKSKEEESVHVTQRKTHYSMDSLSSWYMTVTQKTDPKMLSKKRTTSSQWQSPPVVVILKDMESFATKVLQDFIIISSQHLHEFPLILIFGIATSPIIIHRLLPHAVSSLLCIELFQSLSCKEHLTTVLDKLLLTTQFPFKINEKVLQVLTNIFLYHDFSVQNFIKGLQLSLLEHFYSQPLSVLCCNLPEAKRRINFLSNNQCENIRRLPSFRRYVEKQASEKQVALLTNERYLKEETQLLLENLHVYHMNYFLVLRCLHKFTSSLPKYPLGRQIRELYCTCLEKNIWDSEEYASVLQLLRMLAKDELMTILEKCFKVFKSYCENHLGSTAKRIEEFLAQFQSLDETKEEEDASGSQPKGLQKTDLYHLQKSLLEMKELRRSKKQTKFEVLRENVVNFIDCLVREYLLPPETQPLHEVVYFSAAHALREHLNAAPRIALHTALNNPYYYLKNEALKSEEGCIPNIAPDICIAYKLHLECSRLINLVDWSEAFATVVTAAEKMDANSATSEEMNEIIHARFIRAVSELELLGFIKPTKQKTDHVARLTWGGC [ORC3] | -0.303 | 1.65 | 2.89 | 48 | 48.7 | -0.145
6 | MAVARLAAVAAWVPCRSWGWAAVPFGPHRGLSVLLARIPQRAPRWLPACRQKTSLSFLNRPDLPNLAYKKLKGKSPGIIFIPGYLSYMNGTKALAIEEFCKSLGHACIRFDYSGVGSSDGNSEESTLGKWRKDVLSIIDDLADGPQILVGSSLGGWLMLHAAIARPEKVVALIGVATAADTLVTKFNQLPVELKKEVEMKGVWSMPSKYSEEGVYNVQYSFIKEAEHHCLLHSPIPVNCPIRLLHGMKDDIVPWHTSMQVADRVLSTDVDVILRKHSDHRMREKADIQLLVYTIDDLIDKLSTIVN [ABHD10] | 0.191 | 1.29 | -0.803 | 57.4 | 57.6 | -0.147
7 | MAVFADLDLRAGSDLKALRGLVETAAHLGYSVVAINHIVDFKEKKQEIEKPVAVSELFTTLPIVQGKSRPIKILTRLTIIVSDPSHCNVLRATSSRARLYDVVAVFPKTEKLFHIACTHLDVDLVCITVTEKLPFYFKRPPINVAIDRGLAFELVYSPAIKDSTMRRYTISSALNLMQICKGKNVIISSAAERPLEIRGPYDVANLGLLFGLSESDAKAAVSTNCRAALLHGETRKTAFGIISTVKKPRPSEGDEDCLPASKKAKCEG [RPP30] | -0.0469 | -0.0475 | -1.92 | 55.3 | 56.1 | -0.0188
8 | MAVFDTPEEAFGVLRPVCVQLTKTQTVENVEHLQTRLQAVSDSALQELQQYILFPLRFTLKTPGPKRERLIQSVVECLTFVLSSTCVKEQELLQELFSELSACLYSPSSQKPAAVSEELKLAVIQGLSTLMHSAYGDIILTFYEPSILPRLGFAVSLLLGLAEQEKSKQIKIAALKCLQVLLLQCDCQDHPRSLDELEQKQLGDLFASFLPGISTALTRLITGDFKQGHSIVVSSLKIFYKTVSFIMADEQLKRISKVQAKPAVEHRVAELMVYREADWVKKTGDKLTILIKKIIECVSVHPHWKVRLELVELVEDLLLKCSQSLVECAGPLLKALVGLVNDESPEIQAQCNKVLRHFADQKVVVGNKALADILSESLHSLATSLPRLMNSQDDQGKFSTLSLLLGYLKLLGPKINFVLNSVAHLQRLSKALIQVLELDVADIKIVEERRWNSDDLNASPKTSATQPWNRIQRRYFRFFTDERIFMLLRQVCQLLGYYGNLYLLVDHFMELYHQSVVYRKQAAMILNELVTGAAGLEVEDLHEKHIKTNPEELREIVTSILEEYTSQENWYLVTCLETEEMGEELMMEHPGLQAITSGEHTCQVTSFLAFSKPSPTICSMNSNIWQICIQLEGIGQFAYALGKDFCLLLMSALYPVLEKAGDQTLLISQVATSTMMDVCRACGYDSLQHLINQNSDYLVNGISLNLRHLALHPHTPKVLEVMLRNSDANLLPLVADVVQDVLATLDQFYDKRAASFVSVLHALMAALAQWFPDTGNLGHLQEQSLGEEGSHLNQRPAALEKSTTTAEDIEQFLLNYLKEKDVADGNVSDFDNEEEEQSVPPKVDENDTRPDVEPPLPLQIQIAMDVMERCIHLLSDKNLQIRLKVLDVLDLCVVVLQSHKNQLLPLAHQAWPSLVHRLTRDAPLAVLRAFKVLRTLGSKCGDFLRSRFCKDVLPKLAGSLVTQAPISARAGPVYSHTLAFKLQLAVLQGLGPLCERLDLGEGDLNKVADACLIYLSVKQPVKLQEAARSVFLHLMKVDPDSTWFLLNELYCPVQFTPPHPSLHPVQLHGASGQQNPYTTNVLQLLKELQ [TTI1] | -0.12 | 0.152 | 0.696 | 49.6 | 49.9 | -0.179
9 | MAVLLETTLGDVVIDLYTEERPRACLNFLKLCKIKYYNYCLIHNVQRDFIIQTGDPTGTGRGGESIFGQLYGDQASFFEAEKVPRIKHKKKGTVSMVNNGSDQHGSQFLITTGENLDYLDGVHTVFGEVTEGMDIIKKINETFVDKDFVPYQDIRINHTVILDDPFDDPPDLLIPDRSPEPTREQLDSGRIGADEEIDDFKGRSAEEVEEIKAEKEAKTQAILLEMVGDLPDADIKPPENVLFVCKLNPVTTDEDLEIIFSRFGPIRSCEVIRDWKTGESLCYAFIEFEKEEDCEKAFFKMDNVLIDDRRIHVDFSQSVAKVKWKGKGGKYTKSDFKEYEKEQDKPPNLVLKDKVKPKQDTKYDLILDEQAEDSKSSHSHTSKKHKKKTHHCSEEKEDEDYMPIKNTNQDIYREMGFGHYEEEESCWEKQKSEKRDRTQNRSRSRSRERDGHYSNSHKSKYQTDLYERERSKKRDRSRSPKKSKDKEKSKYR [PPIL4] | -0.23 | 1.3 | 1.99 | 49.2 | 50.3 | 0.0472
10 | MAVPAAAMGPSALGQSGPGSMAPWCSVSSGPSRYVLGMQELFRGHSKTREFLAHSAKVHSVAWSCDGRRLASGSFDKTASVFLLEKDRLVKENNYRGHGDSVDQLCWHPSNPDLFVTASGDKTIRIWDVRTTKCIATVNTKGENINICWSPDGQTIAVGNKDDVVTFIDAKTHRSKAEEQFKFEVNEISWNNDNNMFFLTNGNGCINILSYPELKPVQSINAHPSNCICIKFDPMGKYFATGSADALVSLWDVDELVCVRCFSRLDWPVRTLSFSHDGKMLASASEDHFIDIAEVETGDKLWEVQCESPTFTVAWHPKRPLLAFACDDKDGKYDSSREAGTVKLFGLPNDS [THOC3] | -0.421 | -1.08 | 1.13 | 50.6 | 51.9 | 0.047
